Experimental data: patent US7947279B2, “Peptide having hydrolase activity” (The Trustees of Columbia University in the City of New York, priority 2005, dated 2011)
“Also recorded” adds a separate entry of the source.

What was measured:
[1] = tested on: SY5Y neuroblastoma cells transfected with a degron CL1-GFP expression vector; assay: Proteasome reporter assay (GFP^u); type: cell-based, human; details: substance alone
Method: Proteasome reporter assays. In this cell line, human neuroblastoma SH-SY5Y cells were permanently transfected with reporter construct consisting of green fluorescent protein (GFP) conjugated at its C-terminus to a short degron sequence (CL-1) (Gilon et al., 1998). […] The SY5Y-GFP^u cells were grown in 1×DMEM (Invitrogen) supplemented with 15% fetal bovine serum (JRH), 1× penicillin/streptomycin (Gibco). After indicated treatments, GFP^u concentrations were assayed by densitometric analysis of immunoblots of total protein extracts (10 ug/lane) using monoclonal GFP antibodies (Santa Cruz Biotechnology) and visualized with HRP-conjugated secondary antibodies and ECL (Pierce). Loading equalization was normalized by probing blots with anti-ERK antibodies (Santa Cruz Biotechnology).

ubiquitin-AMC = assay: Hydrolysis of ubiquitin-AMC by TAT fusion proteins; type: biochemical; details: 20 nM TAT fusion proteins
Method: Measurement of Hydrolase Activity: The hydrolase assay was performed as previously described (Nishikawa et al., 2003) with slight modifications. Briefly, hippocampal tissue was treated with tissue protein extraction reagent (T-PER; Pierce) containing freshly added EDTA-free protease inhibitors. Homogenate was centrifuged at 10,000 rpm for 5 min. Protein concentration was measured in the supernatant using the BCA protein assay reagent. In some experiments hydrolysis was initiated by adding 10 μl of 20 nM Uch-L1 or Uch-L3 (Boston Biochem). The hydrolase assay was performed using fluorogenic ubiquitin-7-amino-4-methylcoumarin (ubiquitin-AMC) (Boston Biochem) as a substrate. The substrate was diluted in assay buffer (50 mM Tris-HCL, 0.5 mM EDTA, 5 mM dithiothreitol and 0.1 mg/ml ovalbumin, pH 7.6). […] The reaction was monitored using a fluorescence spectrophotometer (CytoFluor Series 4000, ABI Inc) at 25° C. The free AMC fluorophore was excited at 380 nm and measured at 460 nm. Hydrolase activity was expressed as relative fluorescence intensity/min (Dang et al., 1998). In some experiments, hydrolysis was also measured on the soluble and insoluble fractions (FIG. 28D). In a group of experiments hydrolysis was measured by mixing ubiquitin-AMC with 20 nM TAT fusion proteins (FIG. 27C). […]

mice (WT and APP/PS1) = assay: Contextual and cued fear conditioning; type: in vivo, mouse; details: 0.02-0.04 g/kg i.p.; 1, 7, 14 and 21 days after training
Method: Behavioral Studies: Fear conditioning was performed in a conditioning chamber as previously described (Bourtchuladze et al., 1994; Gong et al., 2004). For contextual and cued fear conditioning mice were placed in the conditioning chamber for 2 min before the onset of a discrete tone (CS) (a 30 sec sound at 2800 Hz and 85 dB). In the last 2 sec of the CS, mice were given a foot shock (US) of 0.50 mA for 2 sec through the bars of the floor. After the CS/US pairing, the mice were left in the conditioning chamber for another 30 sec and then placed back in their home cages. Freezing behavior, defined as the absence of all movement except for that necessitated by breathing, was scored using Freezeview software. To evaluate contextual fear learning, freezing was measured for 5 min in the chamber in which the mice were trained 24 hrs after training. To evaluate cued fear conditioning, following contextual testing, the mice were placed in a novel context (triangular cage with smooth flat floor and with vanilla odorant) for 2 min (pre-CS test), after which they were exposed to the CS for 3 min (CS test), and freezing was measured. To evaluate the contextual fear over time, mice were placed for 5 min in the chamber in which the mice were trained 7- 14- 21-days after training. Sensory perception of the shock was determined through threshold assessment. Each animal was placed individually into the conditioning chamber. […] Animal behavior was evaluated for the first visible response to the shock (flinch), the first extreme motor response (run/jump), and the first vocalized distress (scream). Threshold to flinching, jumping, and screaming was quantified for each animal by averaging of the shock intensity at which each animal manifested a behavioral response of that type to the foot shock. Visual, motor, and motivation skills were also tested with visible platform training by measuring the time and the speed to reach a visible platform placed within a pool filled with water (Gong et al., 2004). Both time to reach the platform and swimming speed were recorded and analyzed with a video tracking system (HVS-2020, HVS Image, UK). No difference was observed among different groups of mice in the experiments in which fear conditioning was tested both in the presence of LDN and TAT fusion proteins. To decide the time of administration of LDN, experiments were performed in which the inhibitor was injected intra-peritoneally at different intervals (4 hrs before, 1 hr before, 1 hr after and 4 hrs after) from the electric shock. During the training phase, no difference was found in the freezing of LDN- or vehicle-injected mice.

[2] = tested on: CA1-LTP in hippocampal slices; assay: CA1-LTP in hippocampal slices (theta-burst); type: cell-based, mouse; details: for Aβ-induced impairment of CA1-LTP (words): fusion protein 20 nM 1 hr, then plus Aβ 200 nM 20 min; for LTP in slices not treated with Aβ (words): fusion protein 20 nM, 1 hr, WT slices, 3 theta-burst trains
phospho-CREB at Ser-133 = assay: Phospho-CREB (Ser-133) Western blot in hippocampal cultures; type: cell-based, rat
Method: Western Blotting: Protein levels were assessed using standard procedures. Protein extraction was performed using buffer with and without detergent. For the extraction of protein using detergent, hippocampal tissues and cultured hippocampal neurons (5 DIV) were homogenized in RIPA buffer (50 mM Tris-HCl pH 7.4, 1% Triton X-100, 1% sodium deoxycholate, 0.1% SDS, 150 mM sodium chloride, 10 mM sodium fluoride, 30 mM sodium pyrophosphate, 50 mM sodium orthovanadate) containing 1× complete protease inhibitor (Roche) and 1 mM phenylmethylsulfonyl fluoride (PMSF). For extraction of proteins without detergent, hippocampal extracts were homogenized with disposable dounce homogenizers in buffer A, containing 10 mM HEPES pH 7.3, 300 mM sucrose, protease 1× complete protease inhibitor (Roche) and PMSF. After centrifugation at 10,000×g supernatant proteins were resolved on a 8% or 4-20% gradient Tris-Glycine gel, transferred onto PVDF or nitrocellulose membrane and blocked in 5% skim milk in PBS-Tween 0.1% (PBS-T). Membranes were probed with primary antibodies, and after washing with PBS-T incubated with an appropriate HRP-conjugated secondary antibody. The following antibodies were used: mouse monoclonal anti-ubiquitin (Chemicon), rabbit polyclonal anti-pCREB (Upstate Biotech.), rabbit polyclonal anti-PKA-RIIα (Santa Cruz Biotech. Inc), mouse monoclonal anti-Uch-L1 (Novocastra), monoclonal mouse anti-HA (Santa Cruz Biotech. Inc), and anti-PKA IIα. Detection was performed using HRP-conjugated secondary antibodies (Pierce, Rockford, Ill.). To control loading and transfer, protein immunoreactivities were normalized against total extracellular signal-regulated protein kinases (ERK1/2) levels with a rabbit analyzed using a rabbit polyclonal anti-ERK1/2 antibody (Cell Signaling Technology, Inc). NIH IMAGE was used to analyze the scanned blots and quantify the intensity of the protein signals.
Preparation of Cell Cultures. Hippocampal cell cultures were prepared as previously described (Vitolo et al., 2002). In cell culture experiments fetuses at embryonic day 18 from timed pregnant Sprague-Dawley rats (Taconic Farms) were used. Fetuses were sacrificed and the hippocampi removed. Neurons were then dissociated, plated on 6 well-plates coated with poly-L-lysine and maintained in a defined serum-free medium containing minimum essential medium supplemented with N-2, glucose, albumin, pyruvic acid, antibiotics and antimycotics. […] 5 DIV cells were used for the experiments.

B1: TAT-HA-Uch-L1(C90S): mutant TAT-HA-Uch-L1 construct, C90S (hydrolase site), made by site-directed mutagenesis (protein, UniProt P09936 1-220, looked up, variant C90S)
Ubiquitin carboxyl-terminal …: MQLKPMEINPEMLNKVLSRLGVAGQWRFVDVLGLEEESLGSVPAPACALLLLFPLTAQHENFRKKQIEELKGQEVSPKVYFMKQTIGNSSGTIGLIHAVANNQDKLGFEDGSVLKQFLSETEKMSPEDRAKCFEKNEAIQAAHDAVAQEGQCRVDDKVNFHFILFNNVDGHLYELDGRMPFPVNHGASSEDTLLKDAAKVCREFTEREQGEVRFSAVALC
modifications: fused to HIV TAT transduction peptide and HA tag
notes: mutant TAT-HA-Uch-L1 construct, C90S (hydrolase site), made by site-directed mutagenesis
Question: How did the “GFP^u levels” value [1] turn out when B1 was run?
Answer: Its value is “increase in GFP^u”.

Question: And the “Uch (hydrolase) activity of TAT constructs (words)” value (ubiquitin-AMC)?
Answer: The value was “little or no activity”.

Question: What about the “Uch (hydrolase) activity of TAT constructs (words)” value (ubiquitin-AMC; listed as TAT-HA-Uch-L1 (C90S)) of the same molecule?
Answer: Its value is “inactive”.

Question: And the “contextual learning in WT mice” value (mice (WT and APP/PS1))?
Answer: The value was “impaired both contextual learning and its decay; also recorded: worsened contextual conditioning performance”.

Question: And the “Aβ-induced impairment of CA1-LTP (words)” value [2]?
Answer: Its value is “failed to protect against LTP suppression; also recorded: failed to reverse”.

Question: And the “Aβ-induced impairment of CA1-LTP (words)” value ([2]; listed as TAT-HA-Uch-L1(C90S) peptide)?
Answer: The value was “did not protect against LTP suppression”.

Question: What about the “LTP in slices not treated with Aβ (words)” value (shortened to “LTP in slices not treated”) [2] of the same molecule?
Answer: The value was “severely impaired potentiation”.

Question: And the “LTP in slices not treated” value ([2]; listed as Mutant (C90S) TAT-Uch-L1 fusion protein)?
Answer: The value was “reduces LTP”.

Question: And the “LTP in slices not treated” value ([2]; listed as mutant (C90S) TAT-Uch-L1)?
Answer: The value was “dramatically reduced LTP”.

Question: And the amounts of potentiation ([2]; fusion protein alone, no Aβ)?
Answer: Its amounts of potentiation is 152.38±10.90%.

Question: And the “decrease in potentiation compared to vehicle or TAT-HA-iUch-L1” value ([2]; fusion protein alone, no Aβ)?
Answer: Its value is about 60%.

Question: And the “baseline transmission in slices without tetanic stimulation” value ([2]; non-tetanized slices)?
Answer: The value was “Neither TAT-HA-Uch-L1(C90S) nor TAT-HA-Uch-L1(S18Y) affected baseline; also recorded: did not affect basal transmission”.

Question: And the “glutamate-induced increase in CREB phosphorylation” value (phospho-CREB at Ser-133; cultures not treated with Aβ)?
Answer: The value was “blocked the glutamate-induced increase in CREB phosphorylation”.

Question: What about the “effect of Aβ on glutamate-induced CREB phosphorylation (words)” value (phospho-CREB at Ser-133; fusion protein 100 nM, 3 μM Aβ 24 hrs, 50 μM glutamate 15 min) of the same molecule?
Answer: The value was “did not allow the enhancement of phospho-CREB”.
